“Also recorded” adds a separate entry of the source. Where two headings read alike, the source gives them in different places.
Assays:
[1] = tested on: gemcitabine-resistant cell (BxPC-3GR); experiment: Migration of Gemcitabine-resistant cancer cells; assay type: cell-based, Human; conditions: ONCO P-8 400 ng/ml, IL-8 200 ng/ml
Experimental: (§1) The drug concentration: ONCO P-8 (400 ng/ml), Reparixin (200 nM), IL-8 (200 ng/ml), statistical significance: *P<0.05, **P<0.01,***P<0.001.

BxPC-3 cell line = experiment: Transwell matrigel invasion assay, BxPC-3; assay type: cell-based, Human; conditions: 24 hrs; for invasive rate: ONCO P-8 400 ng/ml or IL-8 200 ng/ml alone
Experimental: (§2) The invasion ability of cell was performed by using 8 μm pore size transwell (Corning Fluor® Blok™). The transwell insert was coated with 60 μl matrigel (300 μg/ml in serum-free medium, BD Bioscience) overnight at 37° C. in 5% CO2 atmosphere. 2.5×10^4 cells in 0.2 mL of serum-free growth medium were seeded into the upper chamber coated with matrigel and then treated with IL-8 (200 ng/ml) with/without ONCO P-8 (400 ng/ml). After incubation for 24 hrs at 37° C. in 5% CO2, membrane of upper chamber was fixed with methanol and stained with propidium iodide (PI). The invasive cells in the bottom of membrane were imaged and counted by using an inverted fluorescence microscope (Observer.Z1, Zeiss) in five random fields of each specimen (magnification, ×100).

BxPC-3GR [2] = experiment: Transwell invasion assay, BxPC-3GR; assay type: cell-based, Human; conditions: Gemcitabine 100 nM; for invasion rate: ONCO P-8 400 ng/mL or IL-8 200 ng/mL, versus control
Experimental: as §2
(§3) The Gemcitabine-resistant cancer cells treated by Gemcitabine (100 nM) with ONCO P-8 (400 ng/mL), or treated by Gemcitabine with ONCO P-8 and IL-8 (200 ng/mL), or treated by Gemcitabine with IL-8 respectively for invasion ability assay.
as §1

BxPC-3GR [3] = experiment: Cell proliferation assay (CCK-8), BxPC-3GR; assay type: cell-based, Human; conditions: Gemcitabine 100 nM, ONCO P-8 400 ng/mL (47 nM), IL-8 200 ng/mL, 24 hours
Experimental: The Gemcitabine-resistant cancer cells treated by Gemcitabine (100 nM) with ONCO P-8 (400 ng/mL, 47 nM), or treated by Gemcitabine with ONCO P-8 and IL-8 (200 ng/mL, 23.8 nM) for 24 hours.

MIAPaCa2 cells = experiment: MTT cytotoxicity of Gemcitabine, parental MIAPaCa2; assay type: cell-based; conditions: Homo sapiens, MIA PaCa-2
Experimental: (§4) Human pancreatic cancer (PDAC) cell lines, BxPC3 and MIAPaCa2 were used in the present invention. Gemcitabine resistant BxPC3 cell line (BxPC3GR) was generated as a chemoresistant cell line against gemcitabine by culturing BxPC3 cells in media containing increasing concentrations of gemcitabine and then maintained them at 0.5 μM gemcitabine. Gemcitabine resistant MIAPaCa2 cell line (MIAPaCa2GR) was generated by culturing MIAPaCa2 cells in media containing increasing concentrations of gemcitabine and then maintained them at 0.12 μM gemcitabine. […] MIAPaCa2 and MIAPaCa2GR are maintained in DMEM with 10% FBS, 1% penicillin-streptomycin, and 1% L-Glutamine.
(§5) To validate the establishment of Gemcitabine-resistant pancreatic ductal adenocarcinoma (PDAC) cell lines, MTT of Gemcitabine gradient was implemented with parental cells and Gemcitabine-resistant (GR) cells.
(§6) BxPC-3 and BxPC-3GR treated with gemcitabine from 0 nM to 100 nM, and measured by MTT (FIG. 3a). Similarly, MIAPaCa2 and MIAPaCa2GR also treated with gemcitabine from 0 nM to 100 nM, and measured by MTT (FIG. 3b).

BxPC-3 cells = experiment: MTT cytotoxicity of Gemcitabine, parental BxPC-3; assay type: cell-based; conditions: Homo sapiens, BxPC-3 parental cells
Experimental: as §4, §5, §6

BxPC-3GR cells = experiment: MTT cytotoxicity of Gemcitabine, Gemcitabine-resistant BxPC-3GR; assay type: cell-based; conditions: Homo sapiens
Experimental: as §4, §5, §6

MIAPaCa2GR cells = experiment: MTT cytotoxicity of Gemcitabine, Gemcitabine-resistant MIAPaCa2GR; assay type: cell-based; conditions: Homo sapiens
Experimental: as §4
To validate the establishment of Gemcitabine-resistant pancreatic ductal adenocarcinoma (PDAC) cell lines, MTT of Gemcitabine gradient was implemented with parental cells and Gemcitabine-resistant (GR) cells. […]

CXCR1 = target: T1, CXCR1 (Homo sapiens, UniProt P25024); experiment: Indirect ELISA binding assay, CXCR1 complex formation; conditions: versus IL-8
T1 sequence (P25024 1-350): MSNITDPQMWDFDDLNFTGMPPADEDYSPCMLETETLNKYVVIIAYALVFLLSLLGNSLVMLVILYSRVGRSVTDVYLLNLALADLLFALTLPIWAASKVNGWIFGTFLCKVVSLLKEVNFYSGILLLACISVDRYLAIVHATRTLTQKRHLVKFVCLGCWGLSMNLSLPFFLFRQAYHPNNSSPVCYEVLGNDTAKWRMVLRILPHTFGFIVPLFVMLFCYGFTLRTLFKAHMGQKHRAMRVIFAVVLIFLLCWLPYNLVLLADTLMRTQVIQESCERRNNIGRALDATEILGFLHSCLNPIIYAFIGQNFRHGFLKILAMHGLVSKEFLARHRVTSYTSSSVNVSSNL
Text: (§7) The Kd Equation include: (1) i=A450nm/A^max450 nm, then i=Ligand/Ligand^max; (2) 1/(1−i)=(Ligtot/i)/Kd−b, b=fqSrec/Kd.

BxPC-3 xenograft tumor = assay type: in vivo, BALB/c nude mice
Experimental: The PDAC xenograft tumor model treated by ONCO P-8, or treated by Gemcitabine with ONCO P-8, or treated by Gemcitabine, or treated by Gemcitabine, or treated PBS respectively. Gemcitabine administrations were about 100 mg/kg subject weight twice per week. ONCO P-8 administrations were about 500 μg/kg subject weight three times per week. […] The survival rate of xenograft model treated by ONCO P-8 or treated by Gemcitabine with ONCO P-8 is about 100%.
To evaluate the effect of ONCO P-8 in vivo, it was used the BxPC-3 model in 4-week old male BALB/c nude mice in the present invention. Mice were inoculated BxPC-3 cells subcutaneously. After 7 days, mice were treated with PBS or ONCO P-8 (500 μg/kg) by i.p injection three times a week. The initiation tumor size was 128.5±47.8 mm^3 in first treatment.

CXCR2 = target: T2, CXCR2 (Homo sapiens, UniProt P25025); experiment: Indirect ELISA binding assay, CXCR2 complex formation; conditions: versus IL-8
T2 sequence (P25025 1-360): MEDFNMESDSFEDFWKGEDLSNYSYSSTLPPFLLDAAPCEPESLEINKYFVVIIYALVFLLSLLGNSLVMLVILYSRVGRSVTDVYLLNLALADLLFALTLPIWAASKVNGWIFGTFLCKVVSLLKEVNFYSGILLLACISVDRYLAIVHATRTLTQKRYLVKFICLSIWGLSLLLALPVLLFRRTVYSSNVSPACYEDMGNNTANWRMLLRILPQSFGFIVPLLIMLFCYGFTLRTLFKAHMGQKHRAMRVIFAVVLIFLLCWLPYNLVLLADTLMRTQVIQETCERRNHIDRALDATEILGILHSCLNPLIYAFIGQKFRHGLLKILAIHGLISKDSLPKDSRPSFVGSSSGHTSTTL
Text: as §7

BxPC-3 = experiment: Colony formation assay, BxPC-3; assay type: cell-based, Human; conditions: IL-8 200 ng/ml, ONCO P-8 400 ng/ml, 2 weeks
Experimental: Cells were Seeded in a 24-Well Plate at a Density of 1000 Cells Per well, treatment were executed 24 hr after seeding. The treatment included that the cells were treated with IL-8 (200 ng/ml), IL-8 (200 ng/ml) plus ONCO P-8 (400 ng/ml), or ONCO P-8 (400 ng/ml). After 2 weeks, the medium was removed and cells were washed with PBS and stained for 30 min in 0.1% w/v crystal violet (dissolved in methanol; 32675, Fluka® Analytical, USA). Area of colonies were identified by camera and analyzed by ImageJ analysis software. The results were calculated as follows: Colony formation rate (%)=(Treatment area of the colony/Control area of the colony)×100%

[4] = tested on: CSC markers (NANOG, OCT4, SOX2, ALDHA1, BMI-1, KLF4, Nestin) in BxPC3GR-derived spheroids; experiment: RT-PCR of CSC markers in BxPC3GR-derived spheroids; assay type: cell-based, Human; conditions: ONCO P-8 400 ng/ml (47 nM), Gemcitabine 100 nM
Experimental: FIG. 12A-12G illustrate RT-PCR analysis was performed to determine the effect of ONCO P-8 treatment on the expression levels of NANOG (FIG. 12A), OCT4 (FIG. 12B), SOX2 (FIG. 12C), ALDHA1 (FIG. 12D), BMI-1 (FIG. 12E), KLF4 (FIG. 12F) and Nestin (FIG. 12G) in BxPC3GR-derived spheroids with Gemcitabine. Drug resistance related CSC marker: NANOG, OCT4, SOX2. Cell invasion related CSC marker: ALDHA1, BMI-1. Tumor growth related CSC marker: KLF4, Nestin.
All real-time PCR reactions were performed with specific primers and taqman probes or probes from the Universal Probe Library (Roche Applied Science) in the StepOneTMReal-Time PCR system (Applied Biosystems™). 18 s was used as an internal loading control. The reactions were performed as follows: denaturation for 2 min at 50° C. and 10 min at 95° C., 50 cycles of 95° C. for 15 sec, and 60° C. for 1 min. […] Sequences of all primers used are listed below (F: Forward primer; R: Reverse primer): […]

MIAPaCa2GR = experiment: Transwell invasion assay, MIAPaCa2GR; assay type: cell-based, Human; conditions: Gemcitabine 100 nM
Experimental: as §2, §3

[5] = IL-8 200 ng/mL + ONCO P-8 400 ng/mL versus IL-8 group

“IL-8: ELR-CXC chemokine CXCL8 (IL-8), ligand of CXCR1 and CXCR2 [reference compound]” was tested, and the migration rate [1] was “can enhance the cell migration”, the invasive rate (BxPC-3 cell line) was “can enhance the cell invasion” and the invasion rate (BxPC-3GR [2]) was “can enhance”.

In the case of `Nc1ccn([C@@H]2O[C@H](CO)[C@@H](O)C2(F)F)c(=O)n1` [Gemcitabine], the proliferation rate (BxPC-3GR [3]) is reported as “enhanced”, the IC50 (MIAPaCa2 cells) is reported as 251 nM and the IC50 (BxPC-3 cells) is reported as 6.13 nM. For the same molecule, the IC50 (BxPC-3GR cells; BxPC-3GR cells, read-out: IC50-value in BxPC-3GR cells) was 236 nM, the IC50 (BxPC-3GR cells; BxPC-3GR resistant cells, read-out: IC50 (nM) Resistant cells) was 236 nM and the IC50 (MIAPaCa2GR cells) was 8620 nM.

B1: ONCO P-8: chemokine receptor antagonistic modified peptide (SEQ ID NO: 1), analogous protein of CXCL8 (IL-8), antagonist of CXCR1 and CXCR2 (protein)
chain: GSKELRCQCIRSYSKPFHPKFIKELRVIPASQFCANTEIIVKLSDGRELCLDPKENWVQRVVEKFLKRAENS
modifications: ONCO P-8
For B1, the “bind to CXCR1 tighter than IL-8” value (CXCR1) was 3-4 fold, the proliferation rate (BxPC-3GR [3]) was “significantly attenuated; also recorded: inhibited” and the “survival rate / lifespan” value (BxPC-3 xenograft tumor; BxPC-3 xenograft) was “improve the survival rate”. For the same molecule, the survival rate (BxPC-3 xenograft tumor; BxPC-3 xenograft, FIG. 13C) was “about 100%”, the “tumor growth (tumor size)” value (BxPC-3 xenograft tumor; BxPC-3 xenograft, ONCO P-8 500 μg/kg i.p. three times a week, Gemcitabine 100 mg/kg twice per week) was “significantly inhibited the tumor growth” and the “body weight of mice” value (BxPC-3 xenograft tumor; mouse, in vivo, ip) was “didn't lead to reduce the body weight”. For the same molecule, the “bind to CXCR2 tighter than IL-8” value (CXCR2) was 3-4 fold, the migration rate [1] was “can reduce the migration rate; also recorded: can attenuate” and the “invasive rate in presence of CXCL8” value (BxPC-3 cell line; IL-8 200 ng/ml with ONCO P-8 400 ng/ml) was “can neutralize the effect of CXCL8 to reduce the invasive rate”. The invasive rate (BxPC-3 cell line) was “can reduce the invasive rate”, the colony formation rate (BxPC-3) was “can neutralize the effect of CXCL8 to reduce the colony formation rate” and the “invasion rate in presence of IL-8” value (BxPC-3GR [2]; [5]) was “can prevent significantly invasion rate; also recorded: can neutralize the effect of CXCL8 to reduce the invasive rate”. The invasion rate (BxPC-3GR [2]) was “decreases invasion rate; also recorded: can reduce; also recorded: can inhibit the invasion ability; also recorded: can attenuate”, the “expression of CSC properties markers” value [4] was “can reduce the expression of these CSC properties markers” and the “invasion rate in presence of IL-8” value (MIAPaCa2GR; [5]) was “can prevent significantly invasion rate”. For the same molecule, the invasion rate (MIAPaCa2GR; ONCO P-8 400 ng/mL, versus control) was “decreases invasion rate; also recorded: can inhibit the invasion ability”.

From patent US12472227B2, “Pharmaceutical compositions and use thereof for relieving resistance due to cancer chemotherapy and enhancing effect of cancer chemotherapy” (Rise Biopharmaceuticals Inc., priority 2015, dated 2025)
